B1: E3 ubiquitin-protein ligase RNF31 (Homo sapiens), Q96EP0 (parent)
chain: MPGEEEERAFLVAREELASALRRDSGQAFSLEQLRPLLASSLPLAARYLQLDAARLVRCNAHGEPRNYLNTLSTALNILEKYGRNLLSPQRPRYWRGVKFNNPVFRSTVDAVQGGRDVLRLYGYTEEQPDGLSFPEGQEEPDEHQVATVTLEVLLLRTELSLLLQNTHPRQQALEQLLEDKVEDDMLQLSEFDPLLREIAPGPLTTPSVPGSTPGPCFLCGSAPGTLHCPSCKQALCPACDHLFHGHPSRAHHLRQTLPGVLQGTHLSPSLPASAQPRPQSTSLLALGDSSLSSPNPASAHLPWHCAACAMLNEPWAVLCVACDRPRGCKGLGLGTEGPQGTGGLEPDLARGRWACQSCTFENEAAAVLCSICERPRLAQPPSLVVDSRDAGICLQPLQQGDALLASAQSQVWYCIHCTFCNSSPGWVCVMCNRTSSPIPAQHAPRPYASSLEKGPPKPGPPRRLSAPLPSSCGDPEKQRQDKMREEGLQLVSMIREGEAAGACPEEIFSALQYSGTEVPLQWLRSELPYVLEMVAELAGQQDPGLGAFSCQEARRAWLDRHGNLDEAVEECVRTRRRKVQELQSLGFGPEEGSLQALFQHGGDVSRALTELQRQRLEPFRQRLWDSGPEPTPSWDGPDKQSLVRRLLAVYALPSWGRAELALSLLQETPRNYELGDVVEAVRHSQDRAFLRRLLAQECAVCGWALPHNRMQALTSCECTICPDCFRQHFTIALKEKHITDMVCPACGRPDLTDDTQLLSYFSTLDIQLRESLEPDAYALFHKKLTEGVLMRDPKFLWCAQCSFGFIYEREQLEATCPQCHQTFCVRCKRQWEEQHRGRSCEDFQNWKRMNDPEYQAQGLAMYLQENGIDCPKCKFSYALARGGCMHFHCTQCRHQFCSGCYNAFYAKNKCPEPNCRVKKSLHGHHPRDCLFYLRDWTALRLQKLLQDNNVMFNTEPPAGARAVPGGGCRVIEQKEVPNGLRDEACGKETPAGYAGLCQAHYKEYLVSLINAHSLDPATLYEVEELETATERYLHVRPQPLAGEDPPAYQARLLQKLTEEVPLGQSIPRRRK
B2: Ligand of Numb protein X 2 (Homo sapiens), Q8N448 (parent)
chain: MGTTSDEMVSVEQTSSSSLNPLCFECGQQHWTRENHLYNYQNEVDDDLVCHICLQPLLQPLDTPCGHTFCYKCLRNFLQEKDFCPLDRKRLHFKLCKKSSILVHKLLDKLLVLCPFSSVCKDVMQRCDLEAHLKNRCPGASHRRVALERRKTSRTQAEIENENGPTLLDPAGTLSPEADCLGTGAVPVERHLTSASLSTWSEEPGLDNPAFEESAGADTTQQPLSLPEGEITTIEIHRSNPYIQLGISIVGGNETPLINIVIQEVYRDGVIARDGRLLAGDQILQVNNYNISNVSHNYARAVLSQPCNTLHLTVLRERRFGNRAHNHSDSNSPREEIFQVALHKRDSGEQLGIKLVRRTDEPGVFILDLLEGGLAAQDGRLSSNDRVLAINGHDLKYGTPELAAQIIQASGERVNLTIARPGKPQPGNTIREAGNHSSSSQHHTPPPYYSRPSSHKDLTQCVTCQEKHITVKKEPHESLGMTVAGGRGSKSGELPIFVTSVPPHGCLARDGRIKRGDVLLNINGIDLTNLSHSEAVAMLKASAASPAVALKALEVQIVEEATQNAEEQPSTFSENEYDASWSPSWVMWLGLPSTLHSCHDIVLRRSYLGSWGFSIVGGYEENHTNQPFFIKTIVLGTPAYYDGRLKCGDMIVAVNGLSTVGMSHSALVPMLKEQRNKVTLTVICWPGSLV
partner: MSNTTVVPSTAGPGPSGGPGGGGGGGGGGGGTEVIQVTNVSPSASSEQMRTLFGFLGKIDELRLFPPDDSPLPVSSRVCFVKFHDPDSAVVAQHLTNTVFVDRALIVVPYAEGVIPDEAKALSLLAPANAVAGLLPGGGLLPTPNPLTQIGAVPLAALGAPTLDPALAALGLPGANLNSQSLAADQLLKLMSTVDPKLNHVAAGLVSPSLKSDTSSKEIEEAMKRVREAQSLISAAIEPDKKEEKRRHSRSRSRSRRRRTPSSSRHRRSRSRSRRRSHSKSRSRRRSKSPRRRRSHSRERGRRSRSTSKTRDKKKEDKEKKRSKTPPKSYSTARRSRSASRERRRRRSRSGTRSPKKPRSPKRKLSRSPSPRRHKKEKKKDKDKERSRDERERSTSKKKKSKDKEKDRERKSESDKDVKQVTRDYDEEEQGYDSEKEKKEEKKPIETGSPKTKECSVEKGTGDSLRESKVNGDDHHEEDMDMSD
B3: TBC1 domain family member 22B (Homo sapiens), Q9NU19 (parent)
chain: MAAENSKQFWKRSAKLPGSIQPVYGAQHPPLDPRLTKNFIKERSKVNTVPLKNKKASSFHEFARNTSDAWDIGDDEEEDFSSPSFQTLNSKVALATAAQVLENHSKLRVKPERSQSTTSDVPANYKVIKSSSDAQLSRNSSDTCLRNPLHKQQSLPLRPIIPLVARISDQNASGAPPMTVREKTRLEKFRQLLSSQNTDLDELRKCSWPGVPREVRPITWRLLSGYLPANTERRKLTLQRKREEYFGFIEQYYDSRNEEHHQDTYRQIHIDIPRTNPLIPLFQQPLVQEIFERILFIWAIRHPASGYVQGINDLVTPFFVVFLSEYVEEDVENFDVTNLSQDMLRSIEADSFWCMSKLLDGIQDNYTFAQPGIQKKVKALEELVSRIDEQVHNHFRRYEVEYLQFAFRWMNNLLMRELPLRCTIRLWDTYQSEPEGFSHFHLYVCAAFLIKWRKEILDEEDFQGLLMLLQNLPTIHWGNEEIGLLLAEAYRLKYMFADAPNHYRR
partner: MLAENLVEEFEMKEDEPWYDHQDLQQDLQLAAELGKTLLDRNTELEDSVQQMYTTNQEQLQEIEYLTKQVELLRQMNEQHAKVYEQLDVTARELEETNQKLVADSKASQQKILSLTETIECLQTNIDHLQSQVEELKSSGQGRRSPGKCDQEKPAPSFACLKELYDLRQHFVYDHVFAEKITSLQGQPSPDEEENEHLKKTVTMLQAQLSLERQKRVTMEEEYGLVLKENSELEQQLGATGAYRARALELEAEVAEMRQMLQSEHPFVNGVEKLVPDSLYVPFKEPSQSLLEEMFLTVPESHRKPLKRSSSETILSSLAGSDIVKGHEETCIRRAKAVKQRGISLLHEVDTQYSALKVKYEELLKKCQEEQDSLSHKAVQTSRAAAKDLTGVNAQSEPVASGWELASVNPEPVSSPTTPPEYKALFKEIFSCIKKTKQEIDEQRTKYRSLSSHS
B4: TBC1 domain family member 22B (Homo sapiens), Q9NU19 (parent)
chain: B3 chain
partner: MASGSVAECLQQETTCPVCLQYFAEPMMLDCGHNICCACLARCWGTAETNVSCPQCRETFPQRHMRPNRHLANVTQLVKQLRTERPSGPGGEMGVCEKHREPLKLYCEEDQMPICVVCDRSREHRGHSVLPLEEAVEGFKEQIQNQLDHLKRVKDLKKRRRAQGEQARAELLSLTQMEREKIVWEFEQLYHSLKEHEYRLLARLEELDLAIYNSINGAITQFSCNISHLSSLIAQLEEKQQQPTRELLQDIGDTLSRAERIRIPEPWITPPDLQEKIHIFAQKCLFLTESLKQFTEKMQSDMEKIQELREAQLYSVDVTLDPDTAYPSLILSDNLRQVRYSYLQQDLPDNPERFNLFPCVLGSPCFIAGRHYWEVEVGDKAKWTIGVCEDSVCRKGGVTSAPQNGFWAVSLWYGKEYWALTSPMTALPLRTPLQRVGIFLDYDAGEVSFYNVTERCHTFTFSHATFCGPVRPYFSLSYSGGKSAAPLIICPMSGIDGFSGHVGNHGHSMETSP
B5: Protein VAC14 homolog (Homo sapiens), Q08AM6 (parent)
chain: MNPEKDFAPLTPNIVRALNDKLYEKRKVAALEIEKLVREFVAQNNTVQIKHVIQTLSQEFALSQHPHSRKGGLIGLAACSIALGKDSGLYLKELIEPVLTCFNDADSRLRYYACEALYNIVKVARGAVLPHFNVLFDGLSKLAADPDPNVKSGSELLDRLLKDIVTESNKFDLVSFIPLLRERIYSNNQYARQFIISWILVLESVPDINLLDYLPEILDGLFQILGDNGKEIRKMCEVVLGEFLKEIKKNPSSVKFAEMANILVIHCQTTDDLIQLTAMCWMREFIQLAGRVMLPYSSGILTAVLPCLAYDDRKKSIKEVANVCNQSLMKLVTPEDDELDELRPGQRQAEPTPDDALPKQEGTASGGPDGSCDSSFSSGISVFTAASTERAPVTLHLDGIVQVLNCHLSDTAIGMMTRIAVLKWLYHLYIKTPRKMFRHTDSLFPILLQTLSDESDEVILKDLEVLAEIASSPAGQTDDPGPLDGPDLQASHSELQVPTPGRAGLLNTSGTKGLECSPSTPTMNSYFYKFMINLLKRFSSERKLLEVRGPFIIRQLCLLLNAENIFHSMADILLREEDLKFASTMVHALNTILLTSTELFQLRNQLKDLKTLESQNLFCCLYRSWCHNPVTTVSLCFLTQNYRHAYDLIQKFGDLEVTVDFLAEVDKLVQLIECPIFTYLRLQLLDVKNNPYLIKALYGLLMLLPQSSAFQLLSHRLQCVPNPELLQTEDSLKAAPKSQKADSPSIDYAELLQHFEKVQNKHLEVRHQRSGRGDHLDRRVVL
partner: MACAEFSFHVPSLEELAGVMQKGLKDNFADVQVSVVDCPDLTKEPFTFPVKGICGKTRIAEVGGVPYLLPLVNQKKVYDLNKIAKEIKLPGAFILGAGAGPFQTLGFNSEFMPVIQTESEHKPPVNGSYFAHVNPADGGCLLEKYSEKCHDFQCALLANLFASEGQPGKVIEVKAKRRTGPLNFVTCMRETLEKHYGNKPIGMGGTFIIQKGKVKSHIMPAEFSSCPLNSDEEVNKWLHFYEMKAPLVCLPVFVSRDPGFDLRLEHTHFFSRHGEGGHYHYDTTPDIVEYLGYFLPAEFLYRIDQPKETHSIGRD

Variants of: B1
Settings: with hoil1_human RBCK1, Q9BYM8
hoil1_human RBCK1, Q9BYM8, sequence (Q9BYM8 whole entry): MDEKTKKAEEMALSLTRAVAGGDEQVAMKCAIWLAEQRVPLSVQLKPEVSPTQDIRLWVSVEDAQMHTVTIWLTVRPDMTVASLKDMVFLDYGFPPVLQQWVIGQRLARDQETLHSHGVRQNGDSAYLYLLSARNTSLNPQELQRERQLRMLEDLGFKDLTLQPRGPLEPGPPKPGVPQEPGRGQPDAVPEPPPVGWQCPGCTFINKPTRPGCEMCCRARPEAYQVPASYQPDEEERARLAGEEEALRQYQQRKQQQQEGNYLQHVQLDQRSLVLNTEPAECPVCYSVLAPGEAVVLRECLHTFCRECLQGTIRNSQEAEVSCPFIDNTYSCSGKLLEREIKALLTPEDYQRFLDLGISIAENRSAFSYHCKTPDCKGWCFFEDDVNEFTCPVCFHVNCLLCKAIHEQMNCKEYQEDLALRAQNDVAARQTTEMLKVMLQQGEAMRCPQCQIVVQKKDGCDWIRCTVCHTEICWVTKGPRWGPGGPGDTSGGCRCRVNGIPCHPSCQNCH
With R646W the “effect of a mutation on the interaction” value was “with no effect”.

Variants of: B1
Settings: with ccd24_human CCDC24, Q8N4L8
ccd24_human CCDC24, Q8N4L8, sequence (Q8N4L8 whole entry): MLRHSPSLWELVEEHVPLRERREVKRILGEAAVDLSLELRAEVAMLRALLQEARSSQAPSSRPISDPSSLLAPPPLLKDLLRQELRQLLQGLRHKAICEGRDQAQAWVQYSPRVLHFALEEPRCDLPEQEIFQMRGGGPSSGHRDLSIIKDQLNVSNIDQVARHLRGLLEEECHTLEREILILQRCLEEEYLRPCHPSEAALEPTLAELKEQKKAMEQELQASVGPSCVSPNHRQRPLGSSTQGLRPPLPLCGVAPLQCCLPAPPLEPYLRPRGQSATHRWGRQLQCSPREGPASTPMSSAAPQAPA
With R646W the “effect of a mutation on the interaction” value was “with no effect”.

Variants of: B2
Settings: with srs11_human SRSF11, Q05519
In the case of P669A, the “effect of a mutation on the interaction” value is reported as “with no effect”.

Variants of: B3
Settings: with cdr2_human CDR2, Q01850
A349T was tested, and the “effect of a mutation on the interaction” value was “disrupting interaction strength”.

Variants of: B4
Settings: with tri27_human TRIM27, P14373
A349T was tested, and the “effect of a mutation on the interaction” value was “disrupting interaction strength”.

Variants of: B5
Settings: with ck054_human C11orf54, Q9H0W9
For A127S, the “effect of a mutation on the interaction” value was “with no effect”.

Source: IntAct's records for PubMed 29892012
